Data taken from US20050220796A1.

Assays:
[1] = biological target: DNA-dependent protein kinase catalytic subunit (DNA-PKcs) (human) (UniProt P78527); assay: cell-based or functional assay
[2] = biological target: DNA-dependent protein kinase catalytic subunit (DNA-PKcs) (human) (UniProt P78527); assay: SPR (Biacore X), scFv amine coupled to a CM-5 chip, purified DNA-PKcs as analyte, 25 C

Chain of UniProt P78527 (P78527 whole entry): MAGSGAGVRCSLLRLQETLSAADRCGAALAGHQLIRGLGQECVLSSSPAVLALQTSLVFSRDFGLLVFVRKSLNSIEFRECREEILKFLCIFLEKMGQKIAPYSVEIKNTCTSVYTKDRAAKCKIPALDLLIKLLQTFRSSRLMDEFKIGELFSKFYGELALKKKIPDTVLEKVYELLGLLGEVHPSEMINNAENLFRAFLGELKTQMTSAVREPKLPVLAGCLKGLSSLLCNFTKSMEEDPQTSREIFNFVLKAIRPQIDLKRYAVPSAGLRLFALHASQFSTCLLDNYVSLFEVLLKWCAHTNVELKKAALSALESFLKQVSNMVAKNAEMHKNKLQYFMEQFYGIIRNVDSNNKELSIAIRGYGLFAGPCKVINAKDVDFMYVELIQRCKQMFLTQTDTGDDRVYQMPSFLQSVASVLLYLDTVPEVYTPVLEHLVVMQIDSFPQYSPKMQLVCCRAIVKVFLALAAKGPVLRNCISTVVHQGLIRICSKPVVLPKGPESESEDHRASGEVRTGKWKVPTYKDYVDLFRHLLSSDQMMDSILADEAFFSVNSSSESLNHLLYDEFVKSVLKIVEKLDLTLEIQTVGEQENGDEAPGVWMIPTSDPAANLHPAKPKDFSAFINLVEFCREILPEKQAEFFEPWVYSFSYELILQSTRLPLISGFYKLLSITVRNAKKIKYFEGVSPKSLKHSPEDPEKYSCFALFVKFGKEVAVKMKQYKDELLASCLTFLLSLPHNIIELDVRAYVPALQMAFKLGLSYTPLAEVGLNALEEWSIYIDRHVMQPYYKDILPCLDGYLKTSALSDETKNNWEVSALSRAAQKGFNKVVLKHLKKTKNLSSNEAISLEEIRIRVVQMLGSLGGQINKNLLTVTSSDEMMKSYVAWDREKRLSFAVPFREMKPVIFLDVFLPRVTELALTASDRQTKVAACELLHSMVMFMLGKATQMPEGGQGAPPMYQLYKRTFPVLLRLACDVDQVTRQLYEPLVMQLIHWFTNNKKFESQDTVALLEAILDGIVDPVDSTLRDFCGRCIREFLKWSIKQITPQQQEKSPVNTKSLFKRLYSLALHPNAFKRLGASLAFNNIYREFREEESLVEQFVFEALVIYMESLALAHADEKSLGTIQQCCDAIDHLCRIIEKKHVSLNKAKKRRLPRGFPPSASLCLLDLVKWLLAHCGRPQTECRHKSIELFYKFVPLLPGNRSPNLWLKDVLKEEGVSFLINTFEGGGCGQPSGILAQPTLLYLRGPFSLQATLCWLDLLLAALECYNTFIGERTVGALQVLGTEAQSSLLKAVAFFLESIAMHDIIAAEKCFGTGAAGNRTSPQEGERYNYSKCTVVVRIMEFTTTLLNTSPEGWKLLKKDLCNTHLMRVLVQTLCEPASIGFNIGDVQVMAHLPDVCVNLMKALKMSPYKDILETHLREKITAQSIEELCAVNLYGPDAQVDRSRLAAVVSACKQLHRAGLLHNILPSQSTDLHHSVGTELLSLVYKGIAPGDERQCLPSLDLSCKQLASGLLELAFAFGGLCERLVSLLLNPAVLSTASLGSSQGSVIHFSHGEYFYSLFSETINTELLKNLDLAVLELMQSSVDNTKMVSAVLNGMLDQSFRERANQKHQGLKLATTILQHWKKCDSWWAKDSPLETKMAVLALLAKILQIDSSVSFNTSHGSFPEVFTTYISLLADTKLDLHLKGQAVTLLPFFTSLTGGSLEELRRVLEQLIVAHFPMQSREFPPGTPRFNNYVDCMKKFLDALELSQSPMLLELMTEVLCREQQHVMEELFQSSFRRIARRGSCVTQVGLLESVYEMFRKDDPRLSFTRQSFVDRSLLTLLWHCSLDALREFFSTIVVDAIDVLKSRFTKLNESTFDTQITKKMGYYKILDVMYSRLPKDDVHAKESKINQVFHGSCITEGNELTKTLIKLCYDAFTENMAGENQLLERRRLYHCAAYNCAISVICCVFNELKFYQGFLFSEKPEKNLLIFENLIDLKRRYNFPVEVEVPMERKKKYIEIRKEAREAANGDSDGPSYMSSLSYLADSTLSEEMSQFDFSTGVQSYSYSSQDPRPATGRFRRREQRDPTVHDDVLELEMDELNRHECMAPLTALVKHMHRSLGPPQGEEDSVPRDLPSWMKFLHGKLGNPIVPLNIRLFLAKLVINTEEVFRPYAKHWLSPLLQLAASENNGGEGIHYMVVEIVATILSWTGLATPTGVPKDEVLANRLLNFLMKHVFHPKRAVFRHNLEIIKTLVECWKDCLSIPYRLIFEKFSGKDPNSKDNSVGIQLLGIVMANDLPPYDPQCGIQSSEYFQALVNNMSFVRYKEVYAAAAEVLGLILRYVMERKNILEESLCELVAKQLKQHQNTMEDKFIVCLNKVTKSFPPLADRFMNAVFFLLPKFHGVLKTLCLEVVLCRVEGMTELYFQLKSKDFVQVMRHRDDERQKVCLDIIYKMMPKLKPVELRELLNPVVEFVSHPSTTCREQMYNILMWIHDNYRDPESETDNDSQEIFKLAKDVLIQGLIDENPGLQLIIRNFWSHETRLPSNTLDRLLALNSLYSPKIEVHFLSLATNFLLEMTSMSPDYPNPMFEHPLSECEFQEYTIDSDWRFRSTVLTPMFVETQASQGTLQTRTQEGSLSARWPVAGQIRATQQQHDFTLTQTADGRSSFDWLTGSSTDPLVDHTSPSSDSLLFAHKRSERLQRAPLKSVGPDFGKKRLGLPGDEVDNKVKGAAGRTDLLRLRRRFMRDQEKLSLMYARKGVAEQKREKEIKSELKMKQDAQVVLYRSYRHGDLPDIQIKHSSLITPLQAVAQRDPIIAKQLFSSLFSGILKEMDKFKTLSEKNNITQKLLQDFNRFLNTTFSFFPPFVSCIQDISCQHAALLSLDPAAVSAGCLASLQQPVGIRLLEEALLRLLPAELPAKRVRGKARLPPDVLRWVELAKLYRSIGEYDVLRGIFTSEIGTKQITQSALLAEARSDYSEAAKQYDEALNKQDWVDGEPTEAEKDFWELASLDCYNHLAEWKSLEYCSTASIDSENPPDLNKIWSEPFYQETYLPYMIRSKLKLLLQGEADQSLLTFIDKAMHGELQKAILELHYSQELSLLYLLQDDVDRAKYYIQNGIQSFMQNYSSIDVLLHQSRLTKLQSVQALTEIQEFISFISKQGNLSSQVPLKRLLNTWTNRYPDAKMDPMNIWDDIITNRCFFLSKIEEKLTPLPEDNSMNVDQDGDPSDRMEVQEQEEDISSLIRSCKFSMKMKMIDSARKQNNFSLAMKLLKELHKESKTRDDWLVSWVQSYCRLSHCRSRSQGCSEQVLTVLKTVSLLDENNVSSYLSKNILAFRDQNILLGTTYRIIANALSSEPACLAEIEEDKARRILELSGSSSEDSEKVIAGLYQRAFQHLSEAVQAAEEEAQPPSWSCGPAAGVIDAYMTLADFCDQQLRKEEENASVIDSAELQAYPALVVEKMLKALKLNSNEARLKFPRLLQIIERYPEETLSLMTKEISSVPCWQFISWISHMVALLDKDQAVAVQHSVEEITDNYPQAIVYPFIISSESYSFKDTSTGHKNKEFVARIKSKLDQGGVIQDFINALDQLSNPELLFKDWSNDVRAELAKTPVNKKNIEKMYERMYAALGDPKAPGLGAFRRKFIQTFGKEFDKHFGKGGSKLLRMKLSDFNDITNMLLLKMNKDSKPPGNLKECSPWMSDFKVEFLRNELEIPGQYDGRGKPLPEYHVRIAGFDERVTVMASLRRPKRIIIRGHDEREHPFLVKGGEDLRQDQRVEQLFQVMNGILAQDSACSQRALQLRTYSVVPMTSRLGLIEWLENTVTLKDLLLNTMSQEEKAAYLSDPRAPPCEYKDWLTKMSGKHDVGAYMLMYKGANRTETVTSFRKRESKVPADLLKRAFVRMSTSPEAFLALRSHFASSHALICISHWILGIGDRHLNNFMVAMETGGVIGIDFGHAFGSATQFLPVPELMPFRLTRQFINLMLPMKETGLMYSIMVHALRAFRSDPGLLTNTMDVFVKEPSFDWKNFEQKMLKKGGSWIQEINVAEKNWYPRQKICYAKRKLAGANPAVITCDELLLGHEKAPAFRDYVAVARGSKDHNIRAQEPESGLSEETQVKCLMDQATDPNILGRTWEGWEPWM

decrease in p53 peptide phosphorylation activity [1]: 50% | Kd [2]: 1.4 nM
B1: scFv 18-2 (scFv, V domains shown)
VH: QVKLQESGAELVKPGASVKLSCKAFDYTFTTYDINWIKQRPGQGLWIGWIYPGSGNNKYNEKFKGKATLTADKSSRAAYMHLSSLTSEDSAVYFCAGGPLNMTGFDYWGQGTTVTVSS
VL: DIELTQSPSSMYASLGERVTITCKASQDINSYLSWFQQKPGKSPKTLIYRANRLVDGVPSRFSGSGSGQDYSLTISSLEYEDMGIYYCLQYDELPLTFGAGTKLEIK
